Patent US7413873

Target: full length TCF1
Assay: cell-based or functional assay

Sequence of β-catenin (wild type) (P35222 2-781): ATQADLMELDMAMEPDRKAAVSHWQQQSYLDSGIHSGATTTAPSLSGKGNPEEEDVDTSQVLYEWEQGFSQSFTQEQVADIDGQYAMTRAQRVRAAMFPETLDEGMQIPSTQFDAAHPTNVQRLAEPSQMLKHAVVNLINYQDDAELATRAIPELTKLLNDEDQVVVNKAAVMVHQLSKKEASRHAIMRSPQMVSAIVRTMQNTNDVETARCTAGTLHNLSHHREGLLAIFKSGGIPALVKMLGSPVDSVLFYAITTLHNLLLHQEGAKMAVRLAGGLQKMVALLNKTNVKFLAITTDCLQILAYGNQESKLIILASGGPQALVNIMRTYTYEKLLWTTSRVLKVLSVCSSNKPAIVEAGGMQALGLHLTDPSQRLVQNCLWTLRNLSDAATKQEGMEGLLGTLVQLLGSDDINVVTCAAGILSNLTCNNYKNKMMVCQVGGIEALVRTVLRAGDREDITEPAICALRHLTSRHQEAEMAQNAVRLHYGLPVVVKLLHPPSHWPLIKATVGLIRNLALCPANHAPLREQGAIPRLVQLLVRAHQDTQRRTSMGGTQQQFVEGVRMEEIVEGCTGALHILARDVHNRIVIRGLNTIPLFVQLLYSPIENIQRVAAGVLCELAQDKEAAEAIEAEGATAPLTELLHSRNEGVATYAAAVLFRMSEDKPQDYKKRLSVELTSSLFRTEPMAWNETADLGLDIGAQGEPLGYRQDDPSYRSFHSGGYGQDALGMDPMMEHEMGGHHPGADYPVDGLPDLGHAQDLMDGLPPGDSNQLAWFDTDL

activation of luciferase reporter gene driven by the LEF1 promoter (-672, +305), co-transfection in 2017 T lymphocytes: 7 fold
Substance: β-catenin (wild type)
